The supplement of paper PMC7877785
± gives the uncertainty stated by the source.

Experiment: self-splicing fitness, log relative to wild type (ln ratio); higher = more splicing; Tetrahymena group I intron in knt gene, E. coli kanamycin selection, DiMSum; sequences stand for … in CUCUCU…GGAGGGAAAAGUUAUCAGGCAUGCACCUGGUAGCUAGUCUUUAAACCAAUAGAUUGCAUCGGUUUAAAAGGCAAGACCGUCAAAUUGCGGGAAAGGGGUCAACAGCCGUUCAGUACCAAGUCUCAGGGGAAACUUUGAGAUGGCCUUGCAAAGGGUAUGGUAAUAAGCUGACGGACAUGGUCCUAACCACGCAGCCAAGUCCUAAGUCAACAGAUCUUCUGUUGAUAUGGAUGCAGUUCACAGACUAAAUGUCGGUCGGGGAAGAUGUAUUCUUCUCAUAAGAUAUAGUCGGACCUCUCCUUAAUGGGAGCUAGCGGAUGAAGUGAUGCAACACUGGAGCCGCUGGGAACUAAUUUGUAUGCGAAAGUAUAUUGAUUAGUUUUGGAGUACUCGUGGUCG
Method in brief: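 The eight P1ex-region nucleotides of an intron in the knt kanamycin-resistance gene on pET-22b(+) were all randomised and the library put into E. coli BL21(DE3). Six replicate transformations were grown overnight at 37°C or 30°C on LB agar with or without 25 μg/mL kanamycin, together with 100 μg/mL carbenicillin, 50 μM IPTG and 0.2% rhamnose. Colonies were pooled and amplicon-sequenced on an Illumina HiSeq 2500. Fitness from DiMSum is the error-weighted combination of wild-type-normalised replicate fold changes, kanamycin over none.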

Row | Sequence | self-splicing fitness (ln) (30 °C) | self-splicing fitness (ln) (37 °C)
1 | AGGGAGCAAUAUUACGCCGA | -2.38 ± 0.25 | 
2 | AGGGAGCAAUAUUACGCUGG | -4.26 ± 0.37 | -1.67 ± 0.26
3 | AGGGAGCAAUAUUACGGCGC | -2.78 ± 0.5 | -1.23 ± 0.35
4 | AGGGAGCAAUAUUACGGCUU | -3.29 ± 0.25 | -1.11 ± 0.35
5 | AGGGAGCAAUAUUACGGGAA | -1.37 ± 0.38 | -2.58 ± 0.37
6 | AGGGAGCAAUAUUACGGGGA | -3.29 ± 0.34 | -2.64 ± 0.48
7 | AGGGAGCAAUAUUACGUAAG | -3.17 ± 0.2 | -2.28 ± 0.3
8 | AGGGAGCAAUAUUACGUAUG | -2.98 ± 0.3 | -2.37 ± 0.49
9 | AGGGAGCAAUAUUACGUCAC | -2.07 ± 0.24 | -2.69 ± 0.26
10 | AGGGAGCAAUAUUACGUGGG | -3.31 ± 0.2 | 
11 | AGGGAGCAAUAUUACGUUUA | -2.68 ± 0.33 | -2.33 ± 0.31
12 | AGGGAGCAAUAUUACGUUUC |  | -2.44 ± 0.24
13 | AGGUAGCAAUAUUACGAAGG | -3.908 ± 0.034 | -2.86 ± 0.046
14 | AGGUAGCAAUAUUACGAAGU | -3.22 ± 0.026 | -1.56 ± 0.037
15 | AGGUAGCAAUAUUACGACAU | 0 ± 0.009 | 
16 | AGGUAGCAAUAUUACGAGAU | -3.178 ± 0.023 | -1.91 ± 0.036
17 | AGGUAGCAAUAUUACGAGCA | -1.33 ± 0.019 | -0.51 ± 0.034
18 | AGGUAGCAAUAUUACGGAAC | -3.629 ± 0.035 | -2.2 ± 0.042
19 | AGGUAGCAAUAUUACGGAAU | -2.678 ± 0.019 | -1.29 ± 0.035
20 | AGGUAGCAAUAUUACGGACA | -0.694 ± 0.017 | -0.397 ± 0.034
21 | AGGUAGCAAUAUUACGGAUU | -1.553 ± 0.014 | -0.618 ± 0.033
22 | AGGUAGCAAUAUUACGGUAC | -3.522 ± 0.032 | -2.07 ± 0.04

Row | Sequence | self-splicing fitness (ln) (30 °C) | self-splicing fitness (ln) (37 °C)
23 | AGGUAGCAAUAUUACGUAGA | -3.995 ± 0.028 | -2.07 ± 0.036
24 | AGGUAGCAAUAUUACGUAGG | -3.667 ± 0.026 | -2.71 ± 0.039
25 | AGGUAGCAAUAUUACGUCUA | -0.666 ± 0.015 | -0.259 ± 0.033
26 | AGUAAGCAAUAUUACGAACC | -1.74 ± 0.21 | 1.04 ± 0.23
27 | AGUAAGCAAUAUUACGAAGA | -2.88 ± 0.28 | -2.82 ± 0.35
28 | AGUAAGCAAUAUUACGACCG | -1.03 ± 0.17 | -0.428 ± 0.2
29 | AGUAAGCAAUAUUACGACGG | -3.42 ± 0.27 | -1.94 ± 0.2
30 | AGUAAGCAAUAUUACGAGCU | -2.23 ± 0.14 | -1.98 ± 0.13
31 | AGUAAGCAAUAUUACGCAGC | -3.52 ± 0.32 | -1.8 ± 0.3
32 | AGUAAGCAAUAUUACGCCAA | -3.35 ± 0.29 | -2.6 ± 0.24
33 | AGUAAGCAAUAUUACGCCAU | -2.81 ± 0.2 | -1.93 ± 0.22
34 | AGUAAGCAAUAUUACGCCCA | -1.19 ± 0.37 | 
35 | AGUAAGCAAUAUUACGCCUU | -1.74 ± 0.12 | -0.241 ± 0.14
36 | AGUAAGCAAUAUUACGCGGC |  | -3.37 ± 0.42
37 | AGUAAGCAAUAUUACGCUAU | -4.08 ± 0.32 | -1.41 ± 0.13
38 | AGUAAGCAAUAUUACGCUGA | -1.98 ± 0.33 | -2.29 ± 0.31
39 | AGUAAGCAAUAUUACGGACU | -1.57 ± 0.15 | 0.25 ± 0.17
40 | AGUAAGCAAUAUUACGGAGG | -2.9 ± 0.28 | -2.29 ± 0.26
41 | AGUAAGCAAUAUUACGGCGU | -0.683 ± 0.073 | 0.246 ± 0.095
42 | AGUAAGCAAUAUUACGGUAC | -2.95 ± 0.24 | -2.27 ± 0.31
43 | AGUAAGCAAUAUUACGGUGU | -2.92 ± 0.14 | -2.44 ± 0.16
44 | AGUAAGCAAUAUUACGGUUA | -0.833 ± 0.11 | -0.477 ± 0.092
